According to patent US8273855:

Experiments:
Assay in all cases: cell-based or functional assay
[1] = molecular target: myc-tagged full-length mouse Notch1 on transfected OLN cells (mouse) (UniProt Q01705)
[2] = molecular target: Notch on primary rat oligodendrocytes and oligodendrocyte precursor cells (rat) (UniProt Q07008)
[3] = molecular target: Notch1 of mouse neural stem cells (NSCs) (mouse) (UniProt Q01705)
Notch1 of mouse neural stem cells (NSCs) (mouse), sequence (Q01705 19-2531 limits assumed): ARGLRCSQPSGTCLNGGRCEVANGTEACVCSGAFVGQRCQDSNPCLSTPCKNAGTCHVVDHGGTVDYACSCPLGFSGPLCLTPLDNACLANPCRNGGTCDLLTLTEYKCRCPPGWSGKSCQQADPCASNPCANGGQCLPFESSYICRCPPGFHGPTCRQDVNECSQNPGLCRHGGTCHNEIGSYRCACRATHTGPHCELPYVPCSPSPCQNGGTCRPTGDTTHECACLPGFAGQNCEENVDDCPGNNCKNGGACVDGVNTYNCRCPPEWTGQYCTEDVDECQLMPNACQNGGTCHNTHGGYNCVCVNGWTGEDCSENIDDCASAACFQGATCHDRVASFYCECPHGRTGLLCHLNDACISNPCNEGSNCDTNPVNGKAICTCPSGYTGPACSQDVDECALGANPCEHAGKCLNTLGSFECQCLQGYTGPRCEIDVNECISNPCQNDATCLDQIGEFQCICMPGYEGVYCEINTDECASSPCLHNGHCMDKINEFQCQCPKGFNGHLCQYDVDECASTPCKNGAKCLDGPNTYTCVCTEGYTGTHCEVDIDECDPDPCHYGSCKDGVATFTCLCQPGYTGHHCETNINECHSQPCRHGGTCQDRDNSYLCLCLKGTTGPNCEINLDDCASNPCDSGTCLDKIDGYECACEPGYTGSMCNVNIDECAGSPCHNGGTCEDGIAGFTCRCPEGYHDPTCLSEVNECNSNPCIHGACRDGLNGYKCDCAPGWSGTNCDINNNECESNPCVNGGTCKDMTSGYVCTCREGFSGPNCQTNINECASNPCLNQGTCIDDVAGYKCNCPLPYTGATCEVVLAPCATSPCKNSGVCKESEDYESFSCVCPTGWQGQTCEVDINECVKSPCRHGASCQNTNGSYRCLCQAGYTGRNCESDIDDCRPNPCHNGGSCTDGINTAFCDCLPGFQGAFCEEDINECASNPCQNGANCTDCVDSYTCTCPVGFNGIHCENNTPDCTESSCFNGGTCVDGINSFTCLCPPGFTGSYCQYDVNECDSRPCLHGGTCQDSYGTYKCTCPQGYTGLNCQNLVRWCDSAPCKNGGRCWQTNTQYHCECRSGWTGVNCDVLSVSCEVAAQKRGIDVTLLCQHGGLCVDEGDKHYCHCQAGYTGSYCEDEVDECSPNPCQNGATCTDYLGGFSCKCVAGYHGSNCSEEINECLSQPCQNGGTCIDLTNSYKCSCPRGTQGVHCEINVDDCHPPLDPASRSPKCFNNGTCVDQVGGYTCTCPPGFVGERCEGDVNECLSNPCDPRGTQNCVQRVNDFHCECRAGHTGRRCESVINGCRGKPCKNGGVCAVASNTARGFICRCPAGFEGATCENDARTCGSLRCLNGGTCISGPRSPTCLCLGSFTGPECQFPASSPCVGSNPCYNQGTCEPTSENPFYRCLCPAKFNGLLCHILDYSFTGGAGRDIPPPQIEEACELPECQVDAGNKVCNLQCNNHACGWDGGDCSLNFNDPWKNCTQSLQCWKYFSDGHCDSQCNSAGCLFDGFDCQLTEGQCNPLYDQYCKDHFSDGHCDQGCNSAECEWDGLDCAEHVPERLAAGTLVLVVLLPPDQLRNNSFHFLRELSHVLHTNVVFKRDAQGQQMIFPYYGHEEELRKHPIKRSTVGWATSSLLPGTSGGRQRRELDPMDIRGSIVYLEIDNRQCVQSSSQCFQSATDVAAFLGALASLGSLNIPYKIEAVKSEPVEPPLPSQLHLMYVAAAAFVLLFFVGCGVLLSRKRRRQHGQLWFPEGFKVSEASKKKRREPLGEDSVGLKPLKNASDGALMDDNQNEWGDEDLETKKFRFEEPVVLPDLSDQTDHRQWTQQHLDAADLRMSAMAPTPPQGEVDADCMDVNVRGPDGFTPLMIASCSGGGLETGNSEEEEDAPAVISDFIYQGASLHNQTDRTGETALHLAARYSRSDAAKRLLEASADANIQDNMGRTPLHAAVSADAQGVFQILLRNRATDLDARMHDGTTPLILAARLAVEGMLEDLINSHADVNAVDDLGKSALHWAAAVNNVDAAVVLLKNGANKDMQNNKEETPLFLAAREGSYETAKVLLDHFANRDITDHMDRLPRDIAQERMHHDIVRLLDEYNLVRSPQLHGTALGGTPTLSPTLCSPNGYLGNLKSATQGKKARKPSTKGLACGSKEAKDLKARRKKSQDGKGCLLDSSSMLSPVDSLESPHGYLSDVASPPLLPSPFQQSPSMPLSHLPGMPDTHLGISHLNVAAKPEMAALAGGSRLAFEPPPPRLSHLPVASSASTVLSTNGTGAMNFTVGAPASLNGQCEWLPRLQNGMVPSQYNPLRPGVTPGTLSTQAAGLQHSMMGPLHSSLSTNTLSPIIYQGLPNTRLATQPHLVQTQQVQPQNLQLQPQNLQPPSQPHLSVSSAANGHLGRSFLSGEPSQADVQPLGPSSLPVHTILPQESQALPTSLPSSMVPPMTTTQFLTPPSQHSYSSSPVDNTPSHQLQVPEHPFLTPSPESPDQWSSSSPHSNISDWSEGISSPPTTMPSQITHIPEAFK

Notch on primary rat oligodendrocytes and oligodendrocyte precursor cells (rat), sequence (Q07008 19-2531): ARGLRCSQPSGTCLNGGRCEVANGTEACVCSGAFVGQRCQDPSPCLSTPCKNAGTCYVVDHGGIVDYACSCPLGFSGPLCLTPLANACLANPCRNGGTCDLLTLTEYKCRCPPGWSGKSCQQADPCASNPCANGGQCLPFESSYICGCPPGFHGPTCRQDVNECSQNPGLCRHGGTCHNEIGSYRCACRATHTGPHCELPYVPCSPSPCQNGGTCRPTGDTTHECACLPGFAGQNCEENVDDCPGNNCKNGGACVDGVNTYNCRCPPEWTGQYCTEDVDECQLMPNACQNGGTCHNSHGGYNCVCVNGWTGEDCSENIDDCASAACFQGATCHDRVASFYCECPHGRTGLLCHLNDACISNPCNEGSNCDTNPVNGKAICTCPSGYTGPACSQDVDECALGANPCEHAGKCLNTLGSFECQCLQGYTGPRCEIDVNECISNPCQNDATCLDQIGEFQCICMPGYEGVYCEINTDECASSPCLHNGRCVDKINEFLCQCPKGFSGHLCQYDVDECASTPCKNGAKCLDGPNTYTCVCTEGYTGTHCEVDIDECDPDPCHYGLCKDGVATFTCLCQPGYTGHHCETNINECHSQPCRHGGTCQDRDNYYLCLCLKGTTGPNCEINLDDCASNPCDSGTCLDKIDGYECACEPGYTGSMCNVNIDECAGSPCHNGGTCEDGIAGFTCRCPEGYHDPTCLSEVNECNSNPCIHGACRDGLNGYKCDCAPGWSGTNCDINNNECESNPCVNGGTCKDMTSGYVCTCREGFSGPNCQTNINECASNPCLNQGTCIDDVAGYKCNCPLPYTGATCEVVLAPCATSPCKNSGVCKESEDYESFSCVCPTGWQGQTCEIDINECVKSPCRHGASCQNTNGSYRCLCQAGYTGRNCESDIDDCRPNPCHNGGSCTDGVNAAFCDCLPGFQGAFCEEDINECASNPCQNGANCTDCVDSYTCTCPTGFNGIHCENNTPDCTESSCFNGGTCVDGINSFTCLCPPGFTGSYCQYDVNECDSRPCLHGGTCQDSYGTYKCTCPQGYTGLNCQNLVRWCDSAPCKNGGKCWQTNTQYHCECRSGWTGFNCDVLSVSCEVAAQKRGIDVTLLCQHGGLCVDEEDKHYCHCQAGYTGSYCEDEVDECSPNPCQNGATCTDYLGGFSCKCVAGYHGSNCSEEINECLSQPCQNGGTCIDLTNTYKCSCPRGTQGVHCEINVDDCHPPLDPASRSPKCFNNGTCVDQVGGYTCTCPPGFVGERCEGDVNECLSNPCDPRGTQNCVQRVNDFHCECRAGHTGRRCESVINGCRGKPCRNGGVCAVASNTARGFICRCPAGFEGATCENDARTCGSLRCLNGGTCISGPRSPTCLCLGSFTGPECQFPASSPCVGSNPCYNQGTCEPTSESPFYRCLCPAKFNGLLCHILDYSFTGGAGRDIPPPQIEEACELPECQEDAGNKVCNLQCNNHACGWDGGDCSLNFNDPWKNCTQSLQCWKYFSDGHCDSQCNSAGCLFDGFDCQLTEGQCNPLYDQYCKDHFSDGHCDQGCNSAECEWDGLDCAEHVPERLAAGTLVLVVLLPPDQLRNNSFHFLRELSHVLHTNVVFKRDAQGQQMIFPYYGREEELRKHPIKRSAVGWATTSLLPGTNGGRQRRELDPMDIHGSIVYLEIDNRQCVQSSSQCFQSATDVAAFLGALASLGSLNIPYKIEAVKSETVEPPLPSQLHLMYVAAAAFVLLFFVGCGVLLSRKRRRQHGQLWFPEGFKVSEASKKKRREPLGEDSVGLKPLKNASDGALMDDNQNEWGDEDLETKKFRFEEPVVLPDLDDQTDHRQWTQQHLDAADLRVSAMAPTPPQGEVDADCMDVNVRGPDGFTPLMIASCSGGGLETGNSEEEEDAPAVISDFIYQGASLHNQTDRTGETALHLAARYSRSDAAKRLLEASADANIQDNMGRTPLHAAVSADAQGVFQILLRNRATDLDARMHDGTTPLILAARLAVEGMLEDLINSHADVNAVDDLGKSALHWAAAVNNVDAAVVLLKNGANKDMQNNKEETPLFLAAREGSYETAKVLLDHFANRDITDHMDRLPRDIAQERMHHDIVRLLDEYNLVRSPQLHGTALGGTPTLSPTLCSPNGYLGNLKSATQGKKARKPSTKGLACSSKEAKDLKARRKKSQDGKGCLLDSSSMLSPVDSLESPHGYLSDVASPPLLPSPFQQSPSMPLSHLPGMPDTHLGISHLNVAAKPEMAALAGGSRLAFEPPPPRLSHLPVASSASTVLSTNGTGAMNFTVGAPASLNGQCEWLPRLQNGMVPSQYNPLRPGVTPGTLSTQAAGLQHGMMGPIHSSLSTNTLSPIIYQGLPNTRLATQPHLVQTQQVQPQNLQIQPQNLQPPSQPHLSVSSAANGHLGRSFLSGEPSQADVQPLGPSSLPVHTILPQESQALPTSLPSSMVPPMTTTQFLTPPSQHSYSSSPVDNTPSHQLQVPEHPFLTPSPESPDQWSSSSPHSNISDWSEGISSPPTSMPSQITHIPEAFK
myc-tagged full-length mouse Notch1 on transfected OLN cells (mouse), sequence (Q01705 19-2531): as the sequence (Q01705 19-2531 limits assumed) above

## NB-3 (recombinant protein, as substrate or soluble; tag not stated at these places) (from UniProt P97528 20-999) (ligand)
[1]
  MAG staining intensity: 2.5 fold
[2]
  MAG transcripts, real-time PCR, primary OLs: 24 fold
  OPC differentiation into CNPase-positive OLs: 75%
[3]
  OL generation from NSCs, flow cytometry: 2 fold
